This note sets out measurements from PMC5340868 (mBio, 2017).

In data set [1] the target is T1, rRv3167c (TetR-like regulator) (Mycobacterium tuberculosis, UniProt O53317 1-208).
T1 sequence: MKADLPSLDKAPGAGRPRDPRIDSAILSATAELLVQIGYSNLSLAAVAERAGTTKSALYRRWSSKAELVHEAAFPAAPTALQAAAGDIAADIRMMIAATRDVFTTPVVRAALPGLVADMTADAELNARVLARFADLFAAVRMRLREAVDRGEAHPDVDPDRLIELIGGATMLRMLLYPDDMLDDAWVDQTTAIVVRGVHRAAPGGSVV
The data set is described as follows: EMSA; 30 uM protein, 200 nM DNA, 5 mM MgCl2; ITC: 10 mM phosphate pH 7.2, 136 mM NaCl, 4 mM KCl, 25 C ([…]. As to conditions: protein: recombinant; tags: N-terminal 6xHis (pET28c, NdeI/BamHI); chain copies: 2; blunt.

Data set [2] deals with the molecule itself. Kind of data set: SEC.
Data set [3] concerns the target T1, rRv3167c (TetR-like regulator). The data set is described as follows: ITC; ITC: 10 mM phosphate pH 7.2, 136 mM NaCl, 4 mM KCl, 25 C ([…]. To be noted: protein: recombinant; tags: N-terminal 6xHis (pET28c, NdeI/BamHI); chain copies: 2; blunt.

B1: randomized control DNA (Negative+/-) (dsDNA)
DNA 1: AGCCTTGCAGGCTAATCGGTAGCTA
DNA 2: TAGCTACCGATTAGCCTGCAAGGCT
As for B1, the binding result in data set [1] is on record as “no binding”.

B2: recombinant Rv3167c (rRv3167c), N-terminal 6-histidine tag (natural protein)
chain: MKADLPSLDKAPGAGRPRDPRIDSAILSATAELLVQIGYSNLSLAAVAERAGTTKSALYRRWSSKAELVHEAAFPAAPTALQAAAGDIAADIRMMIAATRDVFTTPVVRAALPGLVADMTADAELNARVLARFADLFAAVRMRLREAVDRGEAHPDVDPDRLIELIGGATMLRMLLYPDDMLDDAWVDQTTAIVVRGVHRAAPGGSVV
notes: also called purified Rv3167c
Regarding B2, the “stoichiometry N” value in data set [2] amounted to 2.

B3: palRv3167c (dsDNA)
DNA 1: TAACGCTACCTAAAGTAGCGTAA
DNA 2: TTACGCTACTTTAGGTAGCGTTA
Regarding B3, the Kd in data set [3] was 12.3 ± 3.2 µM.
